Values of other authors, collected in paper PMC11339341.
Like-named read-outs stand apart in the source and are kept apart here.

Tests used:
IFNAR2 (Homo sapiens) [1] = biological target: IFNAR2 (Homo sapiens) (UniProt P48551)
IFNAR1 (Homo sapiens) = IFNAR1 (Homo sapiens) (UniProt P17181)
IFNAR2 (Homo sapiens) [2] = biological target: IFNAR2 (Homo sapiens) (UniProt P48551); remark: listed apart in the source
IL-2Rβ:γc (Homo sapiens) = IL-2Rβ:γc (Homo sapiens) (UniProt P14784)
IL-2Rβ (Homo sapiens) [3] = biological target: IL-2Rβ (Homo sapiens) (UniProt P14784)
IL-2Rβ (Homo sapiens) [4] = biological target: IL-2Rβ (Homo sapiens) (UniProt P14784); remark: listed apart in the source
IL-4Rα (Homo sapiens) = IL-4Rα (Homo sapiens) (UniProt P24394)
IL-2Rβ (Homo sapiens) [5] = biological target: IL-2Rβ (Homo sapiens) (UniProt P14784); remark: listed apart in the source
IL-2Rβ (Homo sapiens) [6] = biological target: IL-2Rβ (Homo sapiens) (UniProt P14784); remark: listed apart in the source

Sequence of UniProt P48551 (P48551 27-243): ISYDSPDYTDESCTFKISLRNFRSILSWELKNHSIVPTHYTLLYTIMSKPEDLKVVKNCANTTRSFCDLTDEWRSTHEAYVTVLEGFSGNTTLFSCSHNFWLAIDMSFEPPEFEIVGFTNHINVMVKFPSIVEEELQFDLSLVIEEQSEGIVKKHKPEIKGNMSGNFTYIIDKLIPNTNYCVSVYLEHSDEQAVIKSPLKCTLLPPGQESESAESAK
Sequence of UniProt P17181 (P17181 28-436): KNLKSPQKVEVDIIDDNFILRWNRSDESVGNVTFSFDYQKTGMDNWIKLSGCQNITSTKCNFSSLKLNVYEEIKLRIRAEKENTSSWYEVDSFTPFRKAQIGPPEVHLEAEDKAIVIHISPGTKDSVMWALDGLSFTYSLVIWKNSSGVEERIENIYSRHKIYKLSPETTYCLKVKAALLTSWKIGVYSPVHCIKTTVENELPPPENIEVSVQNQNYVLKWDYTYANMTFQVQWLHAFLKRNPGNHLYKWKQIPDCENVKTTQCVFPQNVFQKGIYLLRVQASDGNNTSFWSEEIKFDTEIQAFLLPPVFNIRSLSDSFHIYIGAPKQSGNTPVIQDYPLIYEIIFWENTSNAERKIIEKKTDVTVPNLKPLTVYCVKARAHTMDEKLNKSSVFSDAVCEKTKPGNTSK

IFNα1 (from UniProt P0DY56)
Kd (IFNAR2 (Homo sapiens) [1]): 200 nM

IFNβ (from UniProt P01574)
Kd (IFNAR1 (Homo sapiens)): 50 nM
Kd (IFNAR2 (Homo sapiens) [2]): 0.2 nM

IL-2 (from UniProt P60568)
Kd (IL-2Rβ:γc (Homo sapiens)): 1 nM
Kd (IL-2Rβ (Homo sapiens) [3]): 100 nM

IL-2:IL-2Rα complex (from UniProt P60568)
Kd (IL-2Rβ (Homo sapiens) [4]): 0.03 nM

IL-4 (from UniProt P05112)
Kd (IL-4Rα (Homo sapiens)): < 1 nM

IL-15 (from UniProt P40933)
Kd (IL-2Rβ (Homo sapiens) [5]): 438 nM

IL-15:IL-15Rα complex (from UniProt P40933)
Kd (IL-2Rβ (Homo sapiens) [6]): 3 nM
